Test system: RSK2
Sequence (chain, as listed by the source): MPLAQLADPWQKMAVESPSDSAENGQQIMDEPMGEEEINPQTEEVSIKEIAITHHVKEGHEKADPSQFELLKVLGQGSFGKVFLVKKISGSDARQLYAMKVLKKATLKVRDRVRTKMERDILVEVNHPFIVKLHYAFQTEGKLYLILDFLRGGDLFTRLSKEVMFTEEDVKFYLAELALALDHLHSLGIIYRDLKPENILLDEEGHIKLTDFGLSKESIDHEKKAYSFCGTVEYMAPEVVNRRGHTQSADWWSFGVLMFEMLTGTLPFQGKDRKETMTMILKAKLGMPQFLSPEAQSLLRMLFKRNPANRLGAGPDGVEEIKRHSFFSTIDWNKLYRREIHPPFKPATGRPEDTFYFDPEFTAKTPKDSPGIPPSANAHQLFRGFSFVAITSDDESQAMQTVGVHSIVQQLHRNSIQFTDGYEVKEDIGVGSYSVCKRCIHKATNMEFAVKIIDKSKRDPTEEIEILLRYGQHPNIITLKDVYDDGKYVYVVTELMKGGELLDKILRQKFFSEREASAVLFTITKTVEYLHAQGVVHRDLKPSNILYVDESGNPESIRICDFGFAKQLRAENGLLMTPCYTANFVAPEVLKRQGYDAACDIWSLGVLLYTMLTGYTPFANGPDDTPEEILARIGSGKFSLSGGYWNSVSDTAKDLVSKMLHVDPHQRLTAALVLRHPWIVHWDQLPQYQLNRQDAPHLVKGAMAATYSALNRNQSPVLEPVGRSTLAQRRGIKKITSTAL

Substance: WWP1
- RSK2 ubiquitination: SHN3 and WWP1 can promote RSK2 ubiquitination

Source: US20100204053
